Results: the supplement of paper PMC9116672
± gives the standard deviation of the averaged measurements or the uncertainty stated by the source.

Legend:
[1] = duplex melting temperature (HRM, EvaGreen); higher = more stable duplex
Protocol: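 Listed DNA strand annealed 1:1 with its complementary strand (95 °C 5 min, 0.1 °C/s to 20 °C). Melted in 1x NNE buffer (500 mM NaCl, 10 mM Na2HPO4, 1 mM EDTA, pH 7.0) with 1x EvaGreen on a LightCycler96 (37 to 97 °C, 0.1 °C/s). Tm is the peak of -dF/dT at the stated total duplex concentration; 4 replicates are averaged. PS oligos are non-stereospecific (Rp/Sp mixtures).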

[2] = duplex formation free energy ΔG50 (Van't Hoff fit of HRM Tm); higher = less stable duplex; conditions: temperature for dG: 50 °C, NaCl: 500 mM (unadjusted)
Protocol: (§1)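 Duplex of the listed DNA strand with its complement, in 1x NNE buffer (500 mM NaCl, pH 7.0) with 1x EvaGreen. ΔH and ΔS come from a Van't Hoff linear fit of 1/Tm against ln(CT/4) over 1-20 uM, using HRM Tm values.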

[3] = duplex formation enthalpy ΔH (Van't Hoff fit of HRM Tm); higher = less exothermic duplex formation; conditions: temperature for dG: 50 °C, NaCl: 500 mM (unadjusted)
Protocol: as §1

[4] = duplex formation entropy ΔS (Van't Hoff fit of HRM Tm); higher = smaller entropy loss on duplex formation; conditions: temperature for dG: 50 °C, NaCl: 500 mM (unadjusted)
Protocol: as §1

[5] = duplex concentration 1 µM, backbone: PO-PO (both strands phosphodiester DNA)
[6] = duplex concentration 1 µM, backbone: PS-PS (both strands fully phosphorothioate)
[7] = duplex concentration 2.5 µM, backbone: PO-PO (both strands phosphodiester DNA)
[8] = duplex concentration 2.5 µM, backbone: PS-PO (listed strand fully phosphorothioate, complement phosphodiester)
[9] = duplex concentration 2.5 µM, backbone: PS-PS (both strands fully phosphorothioate)
[10] = duplex concentration 5 µM, backbone: PO-PO (both strands phosphodiester DNA)
[11] = duplex concentration 5 µM, backbone: PS-PO (listed strand fully phosphorothioate, complement phosphodiester)
[12] = duplex concentration 5 µM, backbone: PS-PS (both strands fully phosphorothioate)
[13] = duplex concentration 7.5 µM, backbone: PO-PO (both strands phosphodiester DNA)
[14] = duplex concentration 7.5 µM, backbone: PS-PO (listed strand fully phosphorothioate, complement phosphodiester)
[15] = duplex concentration 7.5 µM, backbone: PS-PS (both strands fully phosphorothioate)
[16] = duplex concentration 10 µM, backbone: PO-PO (both strands phosphodiester DNA)
[17] = duplex concentration 10 µM, backbone: PS-PO (listed strand fully phosphorothioate, complement phosphodiester)
[18] = duplex concentration 10 µM, backbone: PS-PS (both strands fully phosphorothioate)
[19] = duplex concentration 15 µM, backbone: PO-PO (both strands phosphodiester DNA)
[20] = duplex concentration 15 µM, backbone: PS-PO (listed strand fully phosphorothioate, complement phosphodiester)
[21] = duplex concentration 15 µM, backbone: PS-PS (both strands fully phosphorothioate)
[22] = duplex concentration 20 µM, backbone: PO-PO (both strands phosphodiester DNA)
[23] = duplex concentration 20 µM, backbone: PS-PO (listed strand fully phosphorothioate, complement phosphodiester)
[24] = duplex concentration 20 µM, backbone: PS-PS (both strands fully phosphorothioate)
[25] = backbone: PO-PO (both strands phosphodiester DNA)
[26] = backbone: PS-PO (listed strand fully phosphorothioate, complement phosphodiester)
[27] = backbone: PS-PS (both strands fully phosphorothioate)
[28] = duplex concentration 1 µM, backbone: PS-PO (listed strand fully phosphorothioate, complement phosphodiester)

TGTCGCACCCTACTA gave a duplex melting temperature [1, 5] of 62.8 ± 2.6 °C, a duplex melting temperature [1, 6] of 49.8 ± 0.68 °C and a duplex melting temperature [1, 7] of 66.1 °C. For the same sequence, the duplex melting temperature [1, 8] was 59.14 ± 0.13 °C, the duplex melting temperature [1, 9] was 53.99 ± 0.17 °C and the duplex melting temperature [1, 10] was 68.24 ± 0.43 °C. The duplex melting temperature [1, 11] was 61.72 ± 0.17 °C, the duplex melting temperature [1, 12] was 56.51 ± 0.21 °C and the duplex melting temperature [1, 13] was 69.66 ± 0.3 °C. The duplex melting temperature [1, 14] was 62.92 ± 0.17 °C, the duplex melting temperature [1, 15] was 57.65 ± 0.22 °C and the duplex melting temperature [1, 16] was 71.02 ± 0.2 °C. For the same sequence, the duplex melting temperature [1, 17] was 64.01 ± 0.12 °C, the duplex melting temperature [1, 18] was 58.5 ± 0.23 °C and the duplex melting temperature [1, 19] was 72.66 ± 0.19 °C. For the same sequence, the duplex melting temperature [1, 20] was 65.449 ± 0.05 °C, the duplex melting temperature [1, 21] was 59.67 ± 0.14 °C and the duplex melting temperature [1, 22] was 73.62 ± 0.15 °C. The duplex melting temperature [1, 23] was 66.44 ± 0.098 °C, the duplex melting temperature [1, 24] was 60.75 ± 0.17 °C and the “duplex formation free energy ΔG50” value [2, 25] was -12.1 ± 0.25 kcal/mol. For the same sequence, the “duplex formation free energy ΔG50” value [2, 26] was -10.95 ± 0.05 kcal/mol, the “duplex formation free energy ΔG50” value [2, 27] was -9.838 ± 0.072 kcal/mol and the “duplex formation enthalpy ΔH” value [3, 25] was -63.3 ± 4.2 kcal/mol. The “duplex formation enthalpy ΔH” value [3, 26] was -64.2 ± 1.2 kcal/mol, the “duplex formation enthalpy ΔH” value [3, 27] was -60.7 ± 3.1 kcal/mol and the “duplex formation entropy ΔS” value [4, 25] was -158 ± 12 cal/mol/K. The “duplex formation entropy ΔS” value [4, 26] was -165 ± 3.6 cal/mol/K and the “duplex formation entropy ΔS” value [4, 27] was -157 ± 9.5 cal/mol/K.
AGCTGAGCCTGCCGCC showed a duplex melting temperature [1, 28] of 65.9 ± 0.78 °C, a duplex melting temperature [1, 6] of 61.14 ± 0.19 °C and a duplex melting temperature [1, 7] of 77.27 ± 0.16 °C. It also gave a duplex melting temperature [1, 8] of 69.3 ± 0.33 °C, a duplex melting temperature [1, 9] of 64.02 ± 0.13 °C and a duplex melting temperature [1, 10] of 78.56 ± 0.24 °C. The duplex melting temperature [1, 11] was 71.58 ± 0.18 °C, the duplex melting temperature [1, 12] was 66.05 ± 0.17 °C and the duplex melting temperature [1, 13] was 79.697 ± 0.042 °C. It also gave a duplex melting temperature [1, 14] of 72.92 ± 0.22 °C, a duplex melting temperature [1, 15] of 67.37 ± 0.12 °C and a duplex melting temperature [1, 16] of 80.57 ± 0.19 °C. For the same sequence, the duplex melting temperature [1, 17] was 73.99 ± 0.21 °C, the duplex melting temperature [1, 18] was 68.22 ± 0.11 °C and the duplex melting temperature [1, 19] was 81.65 ± 0.17 °C. It also gave a duplex melting temperature [1, 20] of 75.27 ± 0.28 °C, a duplex melting temperature [1, 21] of 69.27 ± 0.11 °C and a duplex melting temperature [1, 22] of 82.38 ± 0.13 °C. For the same sequence, the duplex melting temperature [1, 23] was 76.21 ± 0.3 °C, the duplex melting temperature [1, 24] was 70.31 ± 0.28 °C and the “duplex formation free energy ΔG50” value [2, 25] was -16.8 ± 0.39 kcal/mol. The “duplex formation free energy ΔG50” value [2, 26] was -13.04 ± 0.1 kcal/mol, the “duplex formation free energy ΔG50” value [2, 27] was -12.29 ± 0.078 kcal/mol and the “duplex formation enthalpy ΔH” value [3, 25] was -98.2 ± 4.6 kcal/mol. The “duplex formation enthalpy ΔH” value [3, 26] was -69.1 ± 1.6 kcal/mol, the “duplex formation enthalpy ΔH” value [3, 27] was -75.3 ± 1.6 kcal/mol and the “duplex formation entropy ΔS” value [4, 25] was -252 ± 13 cal/mol/K. The “duplex formation entropy ΔS” value [4, 26] was -174 ± 4.5 cal/mol/K and the “duplex formation entropy ΔS” value [4, 27] was -195 ± 4.6 cal/mol/K.
CCACTAGCGGCGCCGTT gave a duplex melting temperature [1, 28] of 67.57 ± 0.56 °C, a duplex melting temperature [1, 6] of 62.65 ± 0.14 °C and a duplex melting temperature [1, 7] of 78.31 ± 0.24 °C. The duplex melting temperature [1, 8] was 70.82 ± 0.38 °C, the duplex melting temperature [1, 9] was 65.52 ± 0.13 °C and the duplex melting temperature [1, 10] was 80.05 ± 0.14 °C. The duplex melting temperature [1, 11] was 73 ± 0.26 °C, the duplex melting temperature [1, 12] was 67.54 ± 0.18 °C and the duplex melting temperature [1, 13] was 81.18 ± 0.29 °C. For the same sequence, the duplex melting temperature [1, 14] was 74.33 ± 0.2 °C, the duplex melting temperature [1, 15] was 68.59 ± 0.13 °C and the duplex melting temperature [1, 16] was 81.87 ± 0.19 °C. The duplex melting temperature [1, 17] was 75.285 ± 0.053 °C, the duplex melting temperature [1, 18] was 69.501 ± 0.06 °C and the duplex melting temperature [1, 19] was 83.03 ± 0.12 °C. The duplex melting temperature [1, 20] was 76.37 ± 0.18 °C, the duplex melting temperature [1, 21] was 70.49 ± 0.094 °C and the duplex melting temperature [1, 22] was 83.58 ± 0.28 °C. The duplex melting temperature [1, 23] was 77.3 ± 0.13 °C, the duplex melting temperature [1, 24] was 71.36 ± 0.16 °C and the “duplex formation free energy ΔG50” value [2, 25] was -17 ± 0.36 kcal/mol. For the same sequence, the “duplex formation free energy ΔG50” value [2, 26] was -13.7 ± 0.17 kcal/mol, the “duplex formation free energy ΔG50” value [2, 27] was -12.8 ± 0.097 kcal/mol and the “duplex formation enthalpy ΔH” value [3, 25] was -97 ± 4 kcal/mol. The “duplex formation enthalpy ΔH” value [3, 26] was -75.1 ± 2.5 kcal/mol, the “duplex formation enthalpy ΔH” value [3, 27] was -79.8 ± 1.8 kcal/mol and the “duplex formation entropy ΔS” value [4, 25] was -247 ± 11 cal/mol/K. The “duplex formation entropy ΔS” value [4, 26] was -190 ± 7.2 cal/mol/K and the “duplex formation entropy ΔS” value [4, 27] was -207 ± 5.3 cal/mol/K.
ATAACTTACTCTCGCCT showed a duplex melting temperature [1, 5] of 63.6 ± 0.52 °C, a duplex melting temperature [1, 28] of 53.9 °C and a duplex melting temperature [1, 6] of 47.36 ± 0.27 °C. It also gave a duplex melting temperature [1, 7] of 65.26 ± 0.45 °C, a duplex melting temperature [1, 8] of 56.75 ± 0.23 °C and a duplex melting temperature [1, 9] of 50.73 ± 0.41 °C. For the same sequence, the duplex melting temperature [1, 10] was 67.07 ± 0.61 °C, the duplex melting temperature [1, 11] was 59 ± 0.16 °C and the duplex melting temperature [1, 12] was 53.03 ± 0.18 °C. It also gave a duplex melting temperature [1, 13] of 68.39 ± 0.58 °C, a duplex melting temperature [1, 14] of 60.21 ± 0.15 °C and a duplex melting temperature [1, 15] of 54.3 ± 0.082 °C. It also gave a duplex melting temperature [1, 16] of 69.34 ± 0.46 °C, a duplex melting temperature [1, 17] of 61.01 ± 0.18 °C and a duplex melting temperature [1, 18] of 55.17 ± 0.085 °C. The duplex melting temperature [1, 19] was 70.85 ± 0.28 °C, the duplex melting temperature [1, 20] was 62.23 ± 0.12 °C and the duplex melting temperature [1, 21] was 56.32 ± 0.24 °C. It also gave a duplex melting temperature [1, 22] of 72.01 ± 0.25 °C, a duplex melting temperature [1, 23] of 63.109 ± 0.04 °C and a duplex melting temperature [1, 24] of 57.138 ± 0.039 °C. The “duplex formation free energy ΔG50” value [2, 25] was -12.7 ± 0.29 kcal/mol, the “duplex formation free energy ΔG50” value [2, 26] was -10.65 ± 0.042 kcal/mol and the “duplex formation free energy ΔG50” value [2, 27] was -9.287 ± 0.031 kcal/mol. For the same sequence, the “duplex formation enthalpy ΔH” value [3, 25] was -77.8 ± 5.4 kcal/mol, the “duplex formation enthalpy ΔH” value [3, 26] was -71.9 ± 1.4 kcal/mol and the “duplex formation enthalpy ΔH” value [3, 27] was -64.9 ± 2.1 kcal/mol. For the same sequence, the “duplex formation entropy ΔS” value [4, 25] was -201 ± 16 cal/mol/K, the “duplex formation entropy ΔS” value [4, 26] was -190 ± 4 cal/mol/K and the “duplex formation entropy ΔS” value [4, 27] was -172 ± 6.5 cal/mol/K.
